Assay results published in the nanobody polyreactivity screen of Harvey et al. (2022).

Test: yeast display, Sf9 membrane polyspecificity reagent, FACS + sequencing; frameworks hold sequencing errors
Outline: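 A synthetic nanobody library was expressed on Saccharomyces cerevisiae BJ5465 by galactose induction for 36–48 hours. The library was stained for 1 hour at 4 °C with 10% biotinylated, detergent-solubilized Sf9 membrane reagent and enriched with streptavidin microbeads before FACS. Low and high (top ~1%) gates were set on anti-HA fluorescence for expression and streptavidin fluorescence for reagent binding, and each polyreactivity label reflects the gate of origin.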

| Sequence | polyreactivity (PSR sort gate) |
| --- | --- |
| QVQLVESGGGLVQAGGSLRLSCAASGSIFIINAMGWYRQAPGKERELVAAITTSGGRTYYADSVKGRFTISRDNAKNTVYLQMNSLKPEDTAVYSCASSHYGSTGNYWGQGTQVTVSS | low polyreactivity |
| QVQLVESGGGLVQAGGSLRLSCAASGRTFYIYTMGWYRQAPGKERELVATAITSGGITYYADSVKGRFTISRDNAKNTVYLQMNSLKPEDTAVYYCAADDYYGYYGFNYWGQGTQVTVSS | low polyreactivity |
| QVQLVESGGGLVQAGGSLRLSCAASGSIFVPNAMGWSRQALGKERELVAAITYSGVDTYYADSVKGRFTISRDNAKNTVYLQMNSLKPEDTAVYYCAADNGRVGYDYWGQGTQVTVSS | low polyreactivity |
| QVQLVESGGGLVQAGGSLRLSCAASGFTFTAYAMGWYRQAPGKERELVAAISYRGGRTNYAYSVKGRFTISRDNAKNTVYLQMNSLKPEDTAVYYCAARPRISTREMDYWGQGTQVTVSS | high polyreactivity |
| QVQLVESGGGLVQAGVSLRLSCAASGTFFIYAMGWYRQAPGKERELVAAITSGDITYYADSVKGRFTISRDNAKNTVYFEMNRLKPEDTAVYYCAAESYAWWDKQFLYRYDYWGQGTQVTVSS | low polyreactivity |
| QVQLVESGGGLVQAGGSLRLSSAASGITFPRYAMGWYRQAPGKERELVAAITRRGGSTYYADSVKGRFTISRDNAKNTVYLQMNSLKPEDTAVYYCNTDMRYSYYLPGYDYWGQGTQVTVSS | high polyreactivity |
| QVQLVESGGGLVQAGGSHRLSCSASGSNFRDYAMGWYRQAPGKERELVAAISWSSSRTYYADSVKGRFTISRDNAKNTVYLQMNSLKPEDTAVYYCNKLSIWSYYFGPYGYDYWGQGTQVTVSS | low polyreactivity |
| QVQLVESGGGLVQAGGSLRLSCAASGSTYSYYAMGWYRQAPGKERELVAAITTSGGRTYYADSVKGRFTISRDNAKNTVYLQMNSLKPEDTAVYYCNARRHWYSAWGYDYWGQGTQVTVSS | high polyreactivity |
| QVQLVESGGRLVQAGGSLRLSCAASGFTFSEYAMRWYRPAPGKVRELVAAINDGGGSTYYADSVKGRFTISRDNAKNTVYLQMNSLKPEDTAVYYCAVEQRLRYGYDYWGQGTQVTVSS | high polyreactivity |
| QVQLVESGGGLVQAGGSLRLSCAASGRTFAWYAMGWYRQAPGKERELVAAISSSGGTTYYADSVKGRFTISRDNAKNTVYLQMNSLKPEDTAVYYCAARPGFWEYWGWWYDRYEYWGQGTQVTVSS | low polyreactivity |
| QVQLVESGGGLVQAGGSLRLSSADSGRTFRYYAMRWYRPAPGKERELVAAITRGGRTNYADSVKGRFTISRDNAKNTVYLQMNSLKPEDTAVYYCAAVLYTPNKYASYYWGQGTQVTVSS | high polyreactivity |
| QVQLVESGGGLVQAGGSLRLSCAASGFTFSYNTMGWYREAPGKERELVAAISRSGGRTFYADSVKGRFTISRDNAKNTVYLQMNSLKPEDTAVYYCARPWFDYWGQGTQVTVSS | high polyreactivity |
| QVPLVESGGGLVQSGGSLRISCAASGSIFAPNAMGWYRQAPGKERELVAAITSGGSTDYADYVKGRFTISRDNAKNTVYLQMNRLKPEDTAVYFCAKGYVPYAIFDYWGQATQVTVSS | low polyreactivity |
| QVQLVESGGGLVQAGGSLRLSCAASGGTFETYALGWYIPAPGKEREFVAANSRSGGSTYYADSVKGRFTISRDNAKNTVYLQMNSLKPEDTAVYYCAAEGYDLSSRVYGGYDYWGQGTQVTVSS | low polyreactivity |
| QDQLVESGGGLVQAGGSLRLSCAASGSIFERYTMGWSRQAPGKERELVAAITTNGGSTYADSVKGRFTISRDNAKNTVYLQMNTLKPEDTADYYCNVDVYLYAKEYDYWGQGTQVTVSS | high polyreactivity |
| QVQLVESGGGLVQAGGSLRLSCAPSGFTFRYYAMGWYRQAPGKERELVAAISWSVGSTYYADSVKGRFTISRDNAKNTVYLQMNSLKPEDTAVYYCNAAWPGYISNRLGYDYWGQGTQVTVSS | high polyreactivity |

| Sequence | polyreactivity (PSR sort gate) |
| --- | --- |
| QVQLVESGGGLVQAGGSLRLSCAASGRTFYYYAMGWYRQAPGNERELVAAISRGGGTNYADSVKGRFTISRDNAKNTVYLQMNSLKPEDTAVYYCAAARIGPQRYDYWGHGTQVTVSS | high polyreactivity |
| QVQLVESGGGLVQAGGSLRLSCAASGSIFGANAMGWYRQAPGKERELVAAISSGDSTYADSVKGRFTISRDNAKNTVYLQMNSLKPEDTAVYYCATCRYGGQGYPFYYWGQGTQVTVSS | low polyreactivity |
| QVQILESGVCLVQARGSLRLSCAASGRTFRSNAMGWYRQAPGKERDLVAAITSSGGRTYYADSVKGRFTISRDNAKNTVYLQMNILKPEDTAVYYCNAVLRQYYRAYDYWGQGTQGTVSS | high polyreactivity |
| QVHLVETGGGLVQAGGSLRLSCGASGYIFSQYAMGCYRQAPGKERELVADITTSAGSTYYADSVKGRFTISRDNAKNTVYLQMNSVIPEDTAVYYCAADVYGHSYYDYDYWGQGTQVTVSS | low polyreactivity |
| QVQLQESGGGLVQAGGSLRLSCAASGNIFEADIMGWYHQAQGKERELVASITDGGSTNYADSVKGRFTINRDNAKNNVYLQMNSLKPADTAVYYCAAIAYPDIPTYFDYDSDYFYWGQGTQVTVSS | high polyreactivity |
| QVQLVDSGGGLVQAGGSLRVSCAASGSILPLNAMGWYRQGPGKERELVADISWSGGDTYYADSVKGRFTISRDNAKNTVYLQMNSLKPEDTSVYYCAADLHTELYKMDYWGQGTQVTVSS | low polyreactivity |
| QVQLVESGGGLVQAGGSLRLSCAASGRTFLYVMGWYRQAPGKERELVAAISRGGSTSYADSVKGRFTISRDNAKNTVYLQMNSLKPEDTAVYYCAATNYWRDGYWGQGTQVTVSS | high polyreactivity |
| QVQLVESGGGLVQAGGSLRLSCAASGSTIGWNAMGWYRQAPRKERELVAAISSSGGITYYADSVKGRYTISRDTAKNTVYLQMNSLKPDDTAVYDCAAEGDDDWVNYWGHGTQVTVSS | low polyreactivity |
| QVQLVESGGGLVQAGGSLRLSCAASGLTFSIYAMGWYRQEPGKERELVARITWNSGSTYYADSVKGRFTISRDNAKNTVYLQMNSLKPEDTAVYYCNARFWGSGVGDLWEGVRYDYWGQGTQVTVSS | high polyreactivity |
| QVQLVESGGGLVQAGGSLRLSCAASGIIFRSYAMGWYRQAPGKERELVAAITRSGGSTYADSVKGRFTISRDNAKNTVYLQMTSLKPEDTAVYYCAADRYSGWVYRRDYWGQGTQVTVSS | low polyreactivity |
| QVQLVEAGGGLVQAGGSLRLSCAASGITLYLYVMGWYRQAPGKEREFVAAIRWSGGSTYYADSVKGRFTISRDNAKNTVYLQMNSLKPEDTAVYYCNAEVYCYYSARRPGYEYWGQGTQVTVSS | low polyreactivity |
| QVQLVESGGGLVQAGGSLRLSCAASGSTFTFNAMAWYRQAPGKEREFVAAITASGGRTYYADSVKGRFTISRDNAKNTVYLQMNSLKPEDTAVYYCNASQWPSRFDYWGQGTQVTVSS | low polyreactivity |
| QVQLVESGGGLVQAGGSLRLSCAASGIIFRDYGMGWYRQAPGKESEIVATITYSGGGTYYADSVKGRFTISRDNANNTVYLQMNSLKPEDTAVYYCAAYPFYYDLAYDYWGQGTQVTVSS | low polyreactivity |
| QVQLVESVVGLDQAGGSLSLSCAASAIILYYYSMGWYRQAPGKEREVVAAISSGGNTYYADSVKGRFTISRDNAKNTVYFQMNSLKPEDTAVYYCAAGNVIGGEYDYWGLGTQVTVSS | low polyreactivity |
| QVQLVESGGGLVQAGGSLRLSCAASGYTFNRNAMGWYIQAPGKERELVASITRRGGSTYYADSVKGRFTISRDNAKNTVYLQMNSLKPEDTAVYYCAVESIRTGDYWGQGTQVTVSS | high polyreactivity |
| QVQLVESGGGLVQAGGSLRLSCAASGRIFGDYAKGWYRQAPGKERELVAAIRFDTGSTYYADSVKGRFTISRDTAKNTVYLQMNSLKPEDTAVYYCAAQHRGVQVTFGEYDYWGQGTQVTVSS | low polyreactivity |
